Measurements from PMC7497807 (Blood cancer discovery, 2020).

Legend:
Assay in all cases: fluorescence polarisation
[1] = biological target: MBP-AF9
[2] = biological target: T1, BCOR (aa 1176–1225)-FITC (UniProt Q6W2J9 1176-1225, fluorescein (printed as BCOR (aa 1176–1225)-FITC))
T1 peptide (looked up): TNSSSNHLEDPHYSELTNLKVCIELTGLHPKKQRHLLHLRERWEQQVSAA

[3] = biological target: fluorescein-labeled CBX8 peptide (FITC-CBX8) (fluorescein (printed as FITC-CBX8))

Chain of MBP-AF9 (P42568 whole entry, the tested form may be a part): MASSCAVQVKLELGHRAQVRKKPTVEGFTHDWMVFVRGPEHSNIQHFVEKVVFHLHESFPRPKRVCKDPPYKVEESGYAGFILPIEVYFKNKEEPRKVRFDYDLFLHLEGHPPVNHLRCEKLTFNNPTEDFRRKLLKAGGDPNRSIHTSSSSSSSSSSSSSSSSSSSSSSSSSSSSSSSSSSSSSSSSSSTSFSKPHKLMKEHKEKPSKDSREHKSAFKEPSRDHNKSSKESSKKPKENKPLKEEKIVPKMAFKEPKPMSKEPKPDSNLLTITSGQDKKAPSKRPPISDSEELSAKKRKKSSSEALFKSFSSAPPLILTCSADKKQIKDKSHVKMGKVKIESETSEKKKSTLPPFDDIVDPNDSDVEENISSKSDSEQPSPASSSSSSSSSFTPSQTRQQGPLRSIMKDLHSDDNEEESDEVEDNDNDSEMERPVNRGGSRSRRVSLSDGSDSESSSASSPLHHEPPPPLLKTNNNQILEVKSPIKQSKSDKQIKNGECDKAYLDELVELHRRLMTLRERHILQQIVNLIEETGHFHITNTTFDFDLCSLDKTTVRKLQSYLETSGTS

B1: unlabeled CBX8 WT peptide (peptide)
chain: AQGGRPSLIARIPVARILGDPEEE
- IC50 [1]: 1.88 ± 0.202 µM

B2: MBP-ENL (domain or fragment)
chain: YTDELVELHRRLMALRERNVLQQIVNLIEETGHFNVTNTTFDFDLFSLDETTVRKLQSCLE
- fold tighter binding to MBP-ENL than to MBP-AF9 [2]: 9 fold
- Kd [3]: 0.112 ± 0.013 µM
